From patent US8927500 come the findings set out here.

Bridges are numbered along the chain shown (N, C = ends). [ ]: non-standard residue; d: D form. pY = N[C@@H](Cc1ccc(OP(=O)(O)O)cc1)C(=O)O; R8 = C=CCCCCCC[C@@](C)(N)C(=O)O; hLeu = CC(C)CC[C@H](N)C(=O)O; S5 = C=CCCC[C@](C)(N)C(=O)O; Cou6 = not defined here; Cou8 = not defined here; βAla = NCCC(=O)O

The target in assay [1] is T1, MDMX (In-house, 40 kD), O15151.
T1 chain: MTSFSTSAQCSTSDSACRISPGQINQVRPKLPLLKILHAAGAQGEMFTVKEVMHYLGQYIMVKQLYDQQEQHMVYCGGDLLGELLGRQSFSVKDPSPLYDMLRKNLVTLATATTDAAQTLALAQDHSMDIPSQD
The experiment in a line: competitive FP vs FAM-labelled linear peptide; grade + = greater than 1000 nM. Particulars: remark: other sources report otherwise.

Assay [2] has as its target T2, MDMX (In-house, 40 kD) (UniProt O15151).
T2 sequence (looked up): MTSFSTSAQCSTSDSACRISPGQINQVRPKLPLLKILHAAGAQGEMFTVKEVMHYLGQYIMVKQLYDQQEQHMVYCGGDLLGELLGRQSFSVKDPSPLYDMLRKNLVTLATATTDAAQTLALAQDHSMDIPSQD
Nature of the assay: competitive fluorescence polarization, MDMX with FAM-labeled linear peptide; graded scale of paragraph 458. On the technique in general: Fluorescence polarisation rises when a labelled molecule tumbles more slowly, as on binding a larger partner.

Assay [3] concerns the target MDM2 (In-house, 41 kD) (UniProt Q00987). The experiment in a line: competitive fluorescence polarization, MDM2 with FAM-labeled linear peptide; graded scale of paragraph 458.
Assay [4] addresses MDM2 (In-house, 41 kD), Q00987. The experiment in a line: competitive FP vs FAM-labelled linear peptide; grade + = greater than 1000 nM. Particulars: remark: other sources report otherwise.

MDM2 (In-house, 41 kD), sequence (Q00987 1-138 limits assumed): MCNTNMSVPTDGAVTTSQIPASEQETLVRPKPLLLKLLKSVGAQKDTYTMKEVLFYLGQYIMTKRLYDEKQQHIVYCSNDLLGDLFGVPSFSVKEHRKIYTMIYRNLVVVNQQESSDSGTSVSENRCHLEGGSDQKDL
MDM2 (In-house, 41 kD), Q00987, sequence (Q00987 1-138 limits assumed): as above

In the case of Cou8-[βAla]LTF[R8]EYWAQ[hLeu][S5]SAA-NH2 (staple 5-12; reading uncertain) [SP447], in assay [1], the IC50 (usually the concentration that inhibits the measured activity by half) was > 1000 nM and the Ki (in general, a measure of affinity in units of concentration, obtained from inhibition or displacement) was > 1000 nM.
As for Ac-LTF[R8]E[pY]WAQL[S5]AAAAA[dA]-NH2 (staple 4-11) [peptidomimetic macrocycle SP615, Ac-LTF$r8EpYWAQL$AAAAAa-NH2], the Ki in assay [2] and in assay [3] was < 10 nM in each case.
For the molecule Ac-LTA[R8]EYWAQL[S5]AAAAA[dA]-NH2 (staple 4-11) [SP560], the Ki in assay [4] and in assay [1] was > 1000 nM in each case.
For the molecule Cou6-[βAla]LTF[R8]EYWAQ[hLeu][S5]SAA-NH2 (staple 5-12; reading uncertain) [SP446], in assay [1], the IC50 is > 1000 nM and the Ki is > 1000 nM.
